Each block holds one molecule with its values, some of them ahead of it.
Assays:
[1] = target: thrombopoietin receptor (TPOR) (UniProt P40238); assay: cell-based or functional assay
T cells expressing TPOR = assay: Stimulation of T cells expressing TPOR for 7 days; cell number and percent transgenic cells by flow cytometry; format: cell-based, human; conditions: 0.1 μg/ml; for TPOR fraction after addition of agonist: enriched from 12.9% without addition
Procedure: (§1) FIG. 12: T cells transduced to express (i) the thrombopoietin receptor (TPOR) or (ii) the GCF receptor with a deletion at aa 715 (GCSFRd715) are active and can drive T cell proliferation via the non-canonical JAK2 pathway. T cells expressing GCSFRd715, TPOR, or the truncated NGFR as a control were stimulated for 7 days with IL-2/IL-7/IL-15 (all at 5 ng/ml; denoted as CK; positive control condition), 0.1 μg/ml recombinant thrombopoietin (TPO), 0.1 μg/ml TPO agonist eltrombopag (EP), or 0.1 μg/ml GCSF. Cell number (top) or percent transgenic cells (bottom) were quantified using flow cytometry at 7 days.
(§2) FIG. 13: Exemplary flow cytometry plots showing that exposure of transgenic cytokine receptor transduced cells to the cognate cytokine (i.e. GCSFRd715 to GCSF; TPOR to TPO or EP) leads to enrichment of CAR expressing cells at 7 days. Addition of GCSF enriched the GCSRFd715 transgenic cell fraction from 15.6% to 64.9% (top panel). Addition of TPO enriched the TPOR fraction from 12.9% to 82% and addition of EP enriched the TPOR fraction from 12.9% to 55.9% (bottom panel).
(§3) Healthy donor T cells were transduced to express (i) the thrombopoietin receptor (TPOR) or (ii) the GCF receptor with a deletion at aa 715 (GCSFRd715). T cells expressing GCSFRd715, TPOR, or the truncated NGFR as a control were stimulated for 7 days with IL-2/IL-7/IL-15 (all at 5 ng/ml; denoted as CK; positive control condition), 0.1 μg/ml recombinant thrombopoietin (TPO), 0.1 μg/ml TPO agonist eltrombopag (EP), or 0.1 μg/ml GCSF. Cell number (FIG. 12, top) or percent transgenic cells (FIG. 12, bottom) were quantified using flow cytometry at 7 days.

[2] = system: T cells expressing the truncated NGFR; assay: Stimulation of negative control T cells expressing truncated NGFR for 7 days; flow cytometry; format: cell-based, human; conditions: 0.1 μg/ml
Procedure: as §1, §3

TPOR = assay: Phosphorylation of STAT3 and STAT5 in TPOR expressing T cells after 24 hours stimulation, flow cytometry; format: cell-based, human; conditions: 0.1 μg/ml
Procedure: (§4) FIG. 14: TPOR stimulation leads to activation of STAT3 and STAT5. Healthy donor T cells expressing TPOR or untransduced control T cells were stimulated for 24 hours with 5 ng/ml IL-2/IL-7/IL-15 (CK), 0.1 μg/ml TPO or 0.1 μg/ml Eltrombopag (EP). Following stimulation cells were fixed and the phosphorylation of STAT3 and STAT5 quantified using flow cytometry.
as §4, with “TPOR” for “FIG. 14: TPOR”, “stimulation led” for “stimulation leads”, “and STAT5 (FIG. 14).” for “and STAT5.”, “μg/ml TPO,” for “μg/ml TPO”

[3] = target: GCF receptor with a deletion at aa 715 (GCSFRd715) (UniProt Q99062); assay: cell-based or functional assay
[4] = system: T cells expressing GCSFRd715; assay: Stimulation of T cells expressing GCSFRd715 for 7 days; cell number and percent transgenic cells by flow cytometry; format: cell-based, human; conditions: 0.1 μg/ml
Procedure: as §1, §2
Healthy donor T cells were transduced to express (i) the thrombopoietin receptor (TPOR) or (ii) the GCF receptor with a deletion at aa 715 (GCSFRd715). […] Cell number (FIG. 12, top) or percent transgenic cells (FIG. 12, bottom) were quantified using flow cytometry at 7 days.

G-CSFR = assay: Enrichment of G-CSFR transgenic T cells upon administration of G-CSF; format: cell-based; conditions: primary human T cells expressing G-CSFR
Description: FIG. 7: Strong and specific enrichment of transgenic cells upon administration of G-CSF.
Ectopic expression of a myeloid cytokine receptor (G-CSFR) can be used to modulate CAR-T proliferation, and these T cells could then be inhibited by JAK2 inhibitors (e.g., FDA-approved JAK2 inhibitors such as ruxolitinib and others) (FIG. 6). […] The G-CSF receptor can be further modified to mediate downstream signaling that is normally associated with the T cell activating cytokine IL2 (chimeric G-CSF receptor) (FIG. 8). A pTRPE construct was used for the overexpression of G-CSFR IL2Rβ/IL2RG cytokine receptor (FIG. 9). The HEK IL2 Blue reporter cell line receptor (www.invivogen.com/hek-blue-il2) was used for screening the synthetic cytokine.

Chain of UniProt Q99062 (Q99062 25-738 limits assumed, stated change not applied): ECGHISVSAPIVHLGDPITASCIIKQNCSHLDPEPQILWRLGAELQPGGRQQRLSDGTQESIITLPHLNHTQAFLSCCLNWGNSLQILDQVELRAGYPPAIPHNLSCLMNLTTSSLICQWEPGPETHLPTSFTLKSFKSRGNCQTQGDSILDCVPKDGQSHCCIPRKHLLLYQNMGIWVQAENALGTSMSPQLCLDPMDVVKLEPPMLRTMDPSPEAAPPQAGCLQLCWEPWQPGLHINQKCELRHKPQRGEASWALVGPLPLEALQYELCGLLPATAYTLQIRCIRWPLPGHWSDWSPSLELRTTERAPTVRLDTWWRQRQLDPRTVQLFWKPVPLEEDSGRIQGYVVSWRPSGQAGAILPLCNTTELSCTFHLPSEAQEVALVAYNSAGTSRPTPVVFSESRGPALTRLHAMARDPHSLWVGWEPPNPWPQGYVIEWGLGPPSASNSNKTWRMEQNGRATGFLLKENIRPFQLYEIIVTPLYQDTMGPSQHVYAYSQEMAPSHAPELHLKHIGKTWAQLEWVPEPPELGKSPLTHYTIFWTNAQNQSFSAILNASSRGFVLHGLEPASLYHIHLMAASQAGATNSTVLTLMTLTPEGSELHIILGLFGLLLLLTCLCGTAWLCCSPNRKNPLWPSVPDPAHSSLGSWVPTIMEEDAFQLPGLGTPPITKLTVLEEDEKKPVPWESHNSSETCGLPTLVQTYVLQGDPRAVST

- percent transgenic cells by flow cytometry after 7 days [1]: 82%
Molecule: recombinant thrombopoietin (TPO) (from UniProt P40225 22-353) (ligand)

Molecule: TPO: recombinant thrombopoietin
- Response of TPOR cells to stimulation (cell number) (T cells expressing TPOR): responded
- TPOR fraction after addition of agonist (T cells expressing TPOR): 82%
- Response of negative control cells (NGFR) to stimulation [2]: did not respond
- STAT5 and STAT3 phosphorylation in TPOR expressing T cells (TPOR): leads to STAT5 and STAT3 phosphorylation

- percent transgenic cells by flow cytometry after 7 days [3]: 64.9%
Molecule: GCSF (from UniProt P09919 31-204) (ligand)

Molecule: CC1=NN(c2ccc(C)c(C)c2)C(=O)/C1=N\Nc1cccc(-c2cccc(C(=O)O)c2)c1O [EP, eltrombopag, reference compound]
- TPOR fraction after addition of agonist (T cells expressing TPOR): 55.9%

B1: GCSF: cognate cytokine of the G-CSF receptor, used at 0.1 μg/ml (protein)
chain: TPLGPASSLPQSFLLKCLEQVRKIQGDGAALQEKLCATYKLCHPEELVLLGHSLGIPWAPLSSCPSQALQLAGCLSQLHSGLFLYQGLLQALEGISPELGPTLDTLQLDVADFATTIWQQMEELGMAPALQPTQGAMPAFASAFQRRAGGVLVASHLQSFLEVSYRVLRHLAQP
- Response of GCSFRd715 cells to stimulation (cell number) [4]: responded
- GCSRFd715 transgenic cell fraction after addition of cytokine ([4]; enriched from 15.6% without addition): 64.9%
- Response of TPOR cells to stimulation (cell number) (T cells expressing TPOR): not
- Response of negative control cells (NGFR) to stimulation [2]: did not respond
- Enrichment of transgenic cells upon administration of G-CSF (G-CSFR): Strong enrichment

Reference: patent US20250367288A1, “DELIVERY OF MULTI-CYTOKINE SIGNALS BY OVEREXPRESSION OF WILD-TYPE OR MUTANT SIGNAL TRANSDUCTION MOLECULES” (THE TRUSTEES OF THE UNIVERSITY OF PENNSYLVANIA, priority 2021, published 2025)
